Measured values taken from patent publication US20080260713.

Target: T1, human regulatory myosin light chain, his-tagged
T1 chain: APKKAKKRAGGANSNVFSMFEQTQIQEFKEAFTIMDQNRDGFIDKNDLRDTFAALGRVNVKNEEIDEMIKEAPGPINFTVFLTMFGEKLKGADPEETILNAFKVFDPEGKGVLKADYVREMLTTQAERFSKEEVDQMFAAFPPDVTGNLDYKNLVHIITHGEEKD

B1: recombinant human neukinase, His-tagged (protein)
chain: MSGTSKESLGHGGLPGLGKTCLTTMDTKLNMLNEKVDQLLHFQEDVTEKLQSMCRDMGHLERGLHRLEASRAPGPGGADGVPHIDTQAGWPEVLELVRAMQQDAAQHGARLEALFRMVAAVDRAIALVGATFQKSKVADFLMQGRVPWRRGSPGDSPEENKERVEEEGGKPKHVLSTSGLQSDAREPGEESQKADVLEGTAERLPPIRASGLGADPAQAVVSPGQGDGVPGPAQAFPGHLPLPTKVEAKAPETPSENLRTGLELAPAPGRVNVVSPSLEVAPGAGQGASSSRPDPEPLEEGTRLTPGPGPQCPGPPGLPAQARATHSGGETPPRISIHIQEMDTPGEMLMTGRGSLGPTLTTEAPAAAQPGKQGPPGTGRCLQAPGTEPGEQTPEGARELSPLQESSSPGGVKAEEEQRAGAEPGTRPSLARSDDNDHEVGALGLQQGKSPGAGNPEPEQDCAARAPVRAEAVRRMPPGAEAGSVVLDDSPAPPAPFEHRVVSVKETSISAGYEVCQHEVLGGGRFGQVHRCTEKSTGLPLAAKIIKVKSAKDREDVKNEINIMNQLSHVNLIQLYDAFESKHSCTLVMEYVDGGELFDRITDEKYHLTELDVVLFTRQICEGVHYLHQHYILHLDLKPENILCVNQTGHQIKIIDFGLARRYKPREKLKVNFGTPEFLAPEVVNYEFVSFPTDMWSVGVITYMLLSGLSPFLGETDAETMNFIVNCSWDFDADTFEGLSEEAKDFVSRLLVKEKSCRMSATQCLKHEWLNNLPAKASRSKTRLKSQLLLQKYIAQRKWKKHFYVVTAANRLRKFPTSP
rate of decrease of NADH absorbance at 340 nm (PK/LDH-coupled assay; 90 uM RLC, 1 uM CaM, 0.3 uM CaCl2, 100 nM neukinase): ΔOD/min/nmol nukinase=0.0152/min/nmol neukinase
